From patent publication US6767991 (Boehringer Ingelheim, dated 2004) come the findings set out here.

Assay in all cases: cell-based or functional assay
For assay [1], the target named is T1, recombinant NS3 protease with the NS4A peptide cofactor … (molar ratio enzyme:cofactor 1:100) (hepatitis C virus genotype 1b).
For assay [2], the target named is T1, recombinant NS3 protease with the NS4A …. This is another data set of the same source.
The target is the same in assay [3]. This is another data set of the same source.
For assay [4] the target is unchanged. The source holds these as a separate data set.

Read-outs that look alike come from different tables or passages of the source. *1 amine or outer side, *2 acyl side, *3 side chain or, on linkers, in order; H or OH if unused. Primed or numbered codes have the meaning given here. Where no end group is shown, it is not given here. [ ]: non-standard residue; d: D form. Pro((4-tert-butyl-phenyl)-methoxy) = Pro(4-R13), R13 = (4-tert-butyl-phenyl)-methoxy; Hyp(4-Bn) = 4(R)-benzyloxyproline, O=C([C@@H]1C[C@@H](OCc2ccccc2)CN1[*:1])[*:2]; Pro(1-NpCH2O)″ = Pro(4-R13), R13 = naphthalen-1-ylmethoxy; Pro(2-NpCH2O)″ = Pro(4-R13), R13 = naphthalen-2-ylmethoxy; Glutaryl = O=C(CCCC(=O)[*:2])[*:1]; Pro(4-OBn) = Pro(4-R13), R13 = OBn; Pro(O-Bn) = Pro(4-R13), R13 = O-Bn; NMeI = CC[C@H](C)[C@H](NC)C(=O)O; Pro(Bn) = Pro(4-R13), R13 = Bn; AllylGly = C=CC[C@H](N)C(=O)O; Chg = N[C@H](C(=O)O)C1CCCCC1; Suc = O=C(CCC(=O)[*:2])[*:1]; Tle = CC(C)(C)[C@H](N)C(=O)O; code B = not defined here; Ac5c = NC1(C(=O)O)CCCC1; Acca = not defined here; Nva = CCC[C@H](N)C(=O)O; Abu = CC[C@H](N)C(=O)O; Acc = not defined here; Ac3c = NC1(C(=O)O)CC1

Suc-IV[Pro(4-(1-NpCH2O))][Nva] [Compound 221 (Table 2): DAD-Ile-Val-Pro(1-NpCH2O)-Nva]: the IC50 (usually the concentration at which inhibition is half-maximal) in assay [1] is 22 µM.

With Ac-D[dD]IVPC [Compound 104 (Table 1): Ac-Asp-D-Asp-Ile-Val-Pro-Cys], the 50% inhibitory concentration (IC50) in assay [2] came out at 8.5 µM. As for {(HOOC-CH2)2‑NC(O)‑CH2‑CH(cyclohexyl)‑C(O)}-Val-[Pro(4-(1-NpCH2O))]-[Ac3c] [Compound 412 (Table 4): B [HOOC-CH2]2-NC(O)-; R4 cyclohexyl; P3 Val; R13 1-NpCH2O; P1 Acca], in assay [3], the concentration for half-maximal inhibition (IC50) was 0.8 µM. For Ac-DDIVP[Nva] [Compound 273 (Table 2): Ac-Asp-Asp-Ile-Val-Pro(R13 = H)-Nva], the half-maximal inhibitory concentration (IC50) in assay [1] worked out at 17.5 µM. Regarding Ac-IVP[Nva] (not fully specified (residue 3); printed as Ac-Ile-Val-Pro(1-NpCH2O)-Nva) [Compound 225 (Table 2): Ac-Ile-Val-Pro(1-NpCH2O)-Nva], the IC50 in assay [1] came out at 45 µM. In the case of Ac-DE[Chg]V[Glu(OBn)][Acca] (reading uncertain; also: printed as Ac-Asp-Glu-Chg-Val-Glu(OBn)-Acca) [Compound 133 (Table 1): Ac-Asp-Glu-Chg-Val-Glu(OBn)-Acca], in assay [2], the half-maximal inhibitory concentration (IC50) came out at 39 µM. For Ac-DDIV[Pro(Bn)][Nva] [Compound 216 (Table 2): Ac-Asp-Asp-Ile-Val-Pro(Bn)-Nva], in assay [1], the half-inhibitory concentration (IC50) was 60 µM. {(HOOC-(CH2)2)2‑NH‑CH2‑CH2‑CH(cyclohexyl)‑C(O)}-Val-[Pro(4-(1-NpCH2O))]-[Ac3c] [Compound 411 (Table 4): B [HOOC-(CH2)2]2-NH-CH2-; R4 cyclohexyl; P3 Val; R13 1-NpCH2O; P1 Acca]: the IC50 in assay [3] came out at 0.36 µM. Regarding Ac-DDIVP[Ac3c] [Compound 126 (Table 1): Ac-Asp-Asp-Ile-Val-Pro-Acca], the half-inhibitory concentration (IC50) in assay [2] stood at 45 µM. Turning to {EtOOC‑CH‑N(Me)2‑C(O)‑CH2‑CH(cyclohexyl)‑C(O)}-Val-[Pro(4-(1-NpCH2O))]-[Ac3c] [Compound 410 (Table 4): B EtOOC-CH-N(Me)2-C(O)-; R4 cyclohexyl; P3 Val; R13 1-NpCH2O; P1 Acca], the IC50 in assay [3] was determined as 32 µM. In the case of Ac-D[dV]IVPC [Compound 274 (Table 2): Ac-Asp-D-Val-Ile-Val-Pro(R13 = H)-Cys], the half-inhibitory concentration (IC50) in assay [1] was 7.6 µM. For the molecule {HOOC‑CH2‑N(Me)‑C(O)‑CH2‑CH(cyclohexyl)‑C(O)}-Val-[Pro(4-(1-NpCH2O))]-[Ac3c] [Compound 409 (Table 4): B HOOC-CH2-N(Me)-C(O)-; R4 cyclohexyl; P3 Val; R13 1-NpCH2O; P1 Acca], the concentration for half-maximal inhibition (IC50) in assay [3] worked out at 24 µM. As to Ac-DDIV[Hyp(4-Bn)]C [Compound 121 (Table 1): Ac-Asp-Asp-Ile-Val-Hyp(4-Bn)-Cys], in assay [2], the half-inhibitory concentration (IC50) was 1.7 µM. Still for that read-out and setting: the value for Suc-DIVPC [Compound 103 (Table 1): DAD-Asp-Ile-Val-Pro-Cys] was 26 µM. For Ac-[Chg]VPC (not fully specified (residue 3); printed as Ac-Chg-Val-Pro(O-Bn)-Cys) [Compound 261 (Table 2): Ac-Chg-Val-Pro(O-Bn)-Cys], the concentration for half-maximal inhibition (IC50) in assay [1] stood at 28 µM. For the molecule {HOOC‑CH2CH2‑N(Me)2‑C(O)‑CH2‑CH(cyclohexyl)‑C(O)}-Val-[Pro(4-(1-NpCH2O))]-[Ac3c] [Compound 407 (Table 4): B HOOC-CH2CH2-N(Me)2-C(O)-; R4 cyclohexyl; P3 Val; R13 1-NpCH2O; P1 Acca], the 50% inhibitory concentration (IC50) in assay [3] was determined as 1.5 µM. For Ac-EDIVPC [Compound 102 (Table 1): Ac-Glu-Asp-Ile-Val-Pro-Cys], in assay [2], the half-maximal inhibitory concentration (IC50) came to 59 µM. On to {HOOC‑CH2CH2‑N(Me)C(O)‑CH2‑CH(cyclohexyl)‑C(O)}-Val-[Pro(4-(1-NpCH2O))]-[Ac3c] [Compound 405 (Table 4): B HOOC-CH2CH2-N(Me)C(O)-; R4 cyclohexyl; P3 Val; R13 1-NpCH2O; P1 Acca], for which the 50% inhibitory concentration (IC50) in assay [3] is 1.6 µM.

B1: Compound 223 (Table 2): B-Ile-Val-Pro(1-NpCH2O)-Nva, B drawn (peptide)
peptide: {code B}-IV[Pro(4-(1-NpCH2O))][Nva]
modifications: reading uncertain; also: further groups not given here, printed as B-Ile-Val-Pro(1-NpCH2O)-Nva
Take B1: the IC50 in assay [1] was 51 µM. Regarding Ac-IVP[Ac3c] (not fully specified (residue 3); printed as Ac-Ile-Val-Pro(1-NpCH2O)-Acca) [Compound 262 (Table 2): Ac-Ile-Val-Pro(1-NpCH2O)-Acca], the IC50 in assay [1] is 40 µM. On to {MeOOC‑CH2‑CH2‑N(Me)c(O)‑CH2‑CH(cyclohexyl)‑C(O)}-Val-[Pro(4-(1-NpCH2O))]-[Ac3c] [Compound 406 (Table 4): B MeOOC-CH2-CH2-N(Me)c(O)-; R4 cyclohexyl; P3 Val; R13 1-NpCH2O; P1 Acca], for which, in assay [3], the IC50 was 25 µM. On to Ac-DIV[Pro(4-(1-NpCH2O))][Nva] [Compound 219 (Table 2): Ac-Asp-Ile-Val-Pro(1-NpCH2O)-Nva], for which, in assay [1], the IC50 was 2.3 µM. For Ac-D[dE]IV[Pro(4-OBn)]C [Compound 260 (Table 2): Ac-Asp-D-Glu-Ile-Val-Pro(O-Bn)-Cys], the IC50 in assay [1] worked out at 0.18 µM. In the case of Ac-DDIVP[Ac5c] [Compound 125 (Table 1): Ac-Asp-Asp-Ile-Val-Pro-Acpe], the IC50 in assay [2] is 210 µM. On to {MeOOC‑(CH2)2‑N(Me)2‑C(O)‑CH2‑CH(cyclohexyl)‑C(O)}-Val-[Pro(4-(1-NpCH2O))]-[Ac3c] [Compound 408 (Table 4): B MeOOC-(CH2)2-N(Me)2-C(O)-; R4 cyclohexyl; P3 Val; R13 1-NpCH2O; P1 Acca], for which the 50% inhibitory concentration (IC50) in assay [3] was 11 µM. In the case of Suc-DIVP[Nva] [Compound 130 (Table 1): DAD-Asp-Ile-Val-Pro-Nva], in assay [2], the 50% inhibitory concentration (IC50) was determined as 123 µM. Same read-out and setting: to Ac-D[dE]IVPC [Compound 105 (Table 1): Ac-Asp-D-Glu-Ile-Val-Pro-Cys] belongs 1.5 µM. Ac-DDIVP[Abu] [Compound 122 (Table 1): Ac-Asp-Asp-Ile-Val-Pro-Abu]: the half-inhibitory concentration (IC50) in assay [2] turned out to be 315 µM. Regarding {(HOOC-(CH2)2)2‑NC(O)‑CH2‑CH(cyclohexyl)‑C(O)}-Val-[Pro(4-(1-NpCH2O))]-[Ac3c] [Compound 413 (Table 4): B [HOOC-(CH2)2]2-NC(O)-; R4 cyclohexyl; P3 Val; R13 1-NpCH2O; P1 Acca], the IC50 in assay [3] is 0.12 µM. As for Ac-DDIV[Pro(1-NpCH2O)″][Nva] [Compound 207 (Table 2): Ac-Asp-Asp-Ile-Val-Pro(1-NpCH2O)-Nva], the 50% inhibitory concentration (IC50) in assay [1] is 0.39 µM.

Regarding Ac-DDIVPC [Compound 101 (Table 1): Ac-Asp-Asp-Ile-Val-Pro-Cys], in assay [2], the IC50 worked out at 46 µM. For Ac-DDIVIC [Compound 119 (Table 1): Ac-Asp-Asp-Ile-Val-Ile-Cys], in assay [2], the IC50 was 90 µM. Take Ac-DDIV[Pro(4-(Ph(CH2)3))][Nva] [Compound 230 (Table 2): Ac-Asp-Asp-Ile-Val-Pro(Ph(CH2)3)-Nva]: the concentration for half-maximal inhibition (IC50) in assay [1] worked out at 3.3 µM. On the same count and under the same terms, the value for Glutaryl-IVP[Ac3c] (not fully specified (residue 3); printed as DAE-Ile-Val-Pro(1-NpCH2O)-Acca) [Compound 237 (Table 2): DAE-Ile-Val-Pro(1-NpCH2O)-Acca] was 5.5 µM; that for Ac-DDIV[Pro(4-(Ph(CH2)3))][Nva] [Compound 217 (Table 2): Ac-Asp-Asp-Ile-Val-Pro(Ph(CH2)3)-Nva] was 3 µM. Take Ac-DE[Chg]EEC [Compound 131 (Table 1): Ac-Asp-Glu-Chg-Glu-Glu-Cys]: in assay [2], the IC50 was 24 µM.

On to Suc-[NMeI]V[Pro(4-(1-NpCH2O))][Nva] [Compound 220 (Table 2): DAD-N(Me)Ile-Val-Pro(1-NpCH2O)-Nva], for which the 50% inhibitory concentration (IC50) in assay [1] amounted to 31 µM. For the molecule Glutaryl-IV[Pro(4-(1-NpCH2O))][Nva] [Compound 222 (Table 2): DAE-Ile-Val-Pro(1-NpCH2O)-Nva], in assay [1], the IC50 came out at 20 µM. With Ac-DDIVP[AllylGly] [Compound 124 (Table 1): Ac-Asp-Asp-Ile-Val-Pro-AlGly], the IC50 in assay [2] is 210 µM.

B2: Compound 224 (Table 2): B-Ile-Val-Pro(1-NpCH2O)-Nva, B drawn (peptide)
peptide: {code B}-IV[Pro(4-(1-NpCH2O))][Nva]
modifications: reading uncertain; also: further groups not given here, printed as B-Ile-Val-Pro(1-NpCH2O)-Nva
With B2, the IC50 in assay [1] was 56 µM. As to Ac-DD[Tle]VPC [Compound 111 (Table 1): Ac-Asp-Asp-Tbg-Val-Pro-Cys], the half-inhibitory concentration (IC50) in assay [2] worked out at 79 µM. For the molecule Ac-DDIV[Pro(O-Bn)][Nva] [Compound 201 (Table 2): Ac-Asp-Asp-Ile-Val-Pro(O-Bn)-Nva], in assay [1], the half-inhibitory concentration (IC50) worked out at 7.2 µM. As for Ac-D[Tle]IVPC [Compound 108 (Table 1): Ac-Asp-Tbg-Ile-Val-Pro-Cys], the IC50 in assay [2] is 31 µM. In the case of Ac-DDIV[Pro((4-tert-butyl-phenyl)-methoxy)][Nva] [Compound 209 (Table 2): Ac-Asp-Asp-Ile-Val-Pro((4-tert-butyl-phenyl)-methoxy)-Nva], in assay [1], the IC50 is 2.6 µM.

B3: Compound 304 (Table 3): Ac-Chg-Val-W-Acc, W drawn (peptide)
peptide: Ac-[Chg]VX[Acc]
modifications: not fully specified (residue 3); printed as Ac-Chg-Val-W-Acc; also: further groups not given here
As for B3, the IC50 in assay [4] turned out to be 1.1 µM. For the molecule Ac-DDIV[Pro(2-NpCH2O)″][Nva] [Compound 208 (Table 2): Ac-Asp-Asp-Ile-Val-Pro(2-NpCH2O)-Nva], in assay [1], the IC50 worked out at 0.71 µM.
